# Data taken from paper PMC3814354, “Interaction of bacterial fatty-acid-displaced regulators with DNA is interrupted by tyrosine phosphorylation in the helix-turn-helix domain”.
# Changes are numbered by the printed parent chain.
# T1: FatR Y45E (Bacillus subtilis, UniProt O08335 1-194, Y45E)
# T1 sequence: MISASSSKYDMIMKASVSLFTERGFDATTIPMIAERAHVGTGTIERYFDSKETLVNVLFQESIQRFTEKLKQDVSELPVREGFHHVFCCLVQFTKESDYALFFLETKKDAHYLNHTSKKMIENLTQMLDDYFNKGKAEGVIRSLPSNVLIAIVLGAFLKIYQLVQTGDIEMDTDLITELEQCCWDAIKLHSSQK
# T2: FatR Y45F (Bacillus subtilis, UniProt O08335 1-194, Y45F)
# T2 sequence: T1 sequence with E45F
# T3: FatR wild type (Bacillus subtilis, UniProt O08335 1-194)
# T3 sequence: T1 sequence with E45Y
# B1: fatR operator (BsOP1/BsOP2) (dsDNA)
# DNA 1: TACGGAATGAATATTCATTCCTTT
# DNA 2: AAAGGAATGAATATTCATTCCGTA
# What was measured:
# Settings in all cases: protein: recombinant; tags: N-terminal 6xHis (pQE-30); chain copies: 2; label: none (ethidium bromide stain); blunt
# FatR Y45E = target: T1, FatR Y45E; assay: EMSA; 960 and 1920 pmol protein, 30 pmol DNA (up to 64:1); EMSA: 100 mM Tris-HCl pH 7.5, 15 min at 37 C, 8% native PAGE in Tris-glycine (2.5 mM Tris, 192 mM glycine), ethidium bromide stain
# FatR Y45F = target: T2, FatR Y45F; assay: as above
# FatR wild type = target: T3, FatR wild type; assay: EMSA; 120-1920 pmol protein, 30 pmol DNA (protein:DNA 4:1 to 64:1); EMSA: 100 mM Tris-HCl pH 7.5, 15 min at 37 C, 8% native PAGE in Tris-glycine (2.5 mM Tris, 192 mM glycine), ethidium bromide stain
binder,measurement,setting,value
B1,binding result,FatR Y45E,no binding
same,binding result,FatR Y45F,no binding
same,binding result,FatR wild type,binds
